PMC9482650, “Quantitative fragmentomics allow affinity mapping of interactomes” (Nature Communications, 2022)

T1: LIN7B, Q9HAP6
T1 sequence (Q9HAP6 88-185, limits assumed, looked up): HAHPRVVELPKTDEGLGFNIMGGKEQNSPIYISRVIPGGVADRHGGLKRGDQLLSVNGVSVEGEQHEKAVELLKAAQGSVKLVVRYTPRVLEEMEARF

T2: PTPN13_1, Q12923
T2 sequence (Q12923 1088-1188, limits assumed, looked up): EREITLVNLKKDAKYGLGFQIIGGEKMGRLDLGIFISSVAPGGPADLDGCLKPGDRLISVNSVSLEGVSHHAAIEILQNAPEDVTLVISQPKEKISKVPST

T3: MPDZ_10, O75970
T3 sequence (O75970 1624-1722, limits assumed, looked up): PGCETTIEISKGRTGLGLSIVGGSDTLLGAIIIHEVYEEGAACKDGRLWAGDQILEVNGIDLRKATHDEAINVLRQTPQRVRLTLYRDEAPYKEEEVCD

T4: PARD3B_1, Q8TEW8
T4 sequence (Q8TEW8 196-299, limits assumed, looked up): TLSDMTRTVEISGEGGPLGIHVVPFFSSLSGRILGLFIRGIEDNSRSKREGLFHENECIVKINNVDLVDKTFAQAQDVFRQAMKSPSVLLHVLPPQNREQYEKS

T5: HTRA3, P83110
T5 sequence (P83110 354-453, limits assumed, looked up): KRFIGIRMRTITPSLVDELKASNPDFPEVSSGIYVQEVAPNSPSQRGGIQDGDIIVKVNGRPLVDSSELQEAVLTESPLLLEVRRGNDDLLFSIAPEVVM

T6: SYNJ2BP, P57105
T6 sequence (P57105 8-110, limits assumed, looked up): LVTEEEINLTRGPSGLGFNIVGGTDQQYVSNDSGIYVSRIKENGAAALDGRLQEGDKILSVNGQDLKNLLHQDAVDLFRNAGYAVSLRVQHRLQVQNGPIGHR

T7: GRIP1_2, Q9Y3R0
T7 sequence (Q9Y3R0 145-248, limits assumed, looked up): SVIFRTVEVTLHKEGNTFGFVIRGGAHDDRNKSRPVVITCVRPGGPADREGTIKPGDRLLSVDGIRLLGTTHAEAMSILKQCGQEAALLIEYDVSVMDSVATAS

T8: DLG3_2, Q92796
T8 sequence (Q92796 221-321, limits assumed, looked up): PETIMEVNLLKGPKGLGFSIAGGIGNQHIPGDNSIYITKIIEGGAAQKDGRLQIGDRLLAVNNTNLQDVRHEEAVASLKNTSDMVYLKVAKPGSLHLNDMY

T9: DLG3_3, Q92796
T9 sequence (Q92796 374-475, limits assumed, looked up): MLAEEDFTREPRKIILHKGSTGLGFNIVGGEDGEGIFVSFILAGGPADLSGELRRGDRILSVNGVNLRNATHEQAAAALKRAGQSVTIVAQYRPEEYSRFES

T10: DFNB31_2, Q9P202
T10 sequence (Q9P202 274-371, limits assumed, looked up): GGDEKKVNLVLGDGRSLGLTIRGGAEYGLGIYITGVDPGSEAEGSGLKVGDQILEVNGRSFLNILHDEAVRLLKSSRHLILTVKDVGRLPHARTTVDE

T11: RHPN1, Q8TCX5
T11 sequence (Q8TCX5 508-602, limits assumed, looked up): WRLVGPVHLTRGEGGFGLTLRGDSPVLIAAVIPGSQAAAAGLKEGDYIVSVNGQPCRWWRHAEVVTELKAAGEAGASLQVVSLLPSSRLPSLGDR

T12: GRIP1_4, Q9Y3R0
T12 sequence (Q9Y3R0 467-571, limits assumed, looked up): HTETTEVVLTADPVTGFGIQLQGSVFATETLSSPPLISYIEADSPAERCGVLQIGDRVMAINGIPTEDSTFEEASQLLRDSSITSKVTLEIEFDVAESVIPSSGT


Columns and labels:
Experiment in all cases: holdup assay
Set-up in all cases: key: below the threshold = too weak to quantify, mostly under pKd 3.1 to 4
Details in all cases: plain residues with an end cap or a label only (N-terminal biotin on a linker: ado-ado)
[1] = target: T1, LIN7B, Q9HAP6
[2] = target: Inadl_9, Q8NI35
[3] = target: IL16_1, Q14005
[4] = target: T2, PTPN13_1, Q12923
[5] = target: DLG2_2, Q15700
[6] = target: T3, MPDZ_10, O75970
[7] = target: LAP2, Q96RT1
[8] = target: Inadl_5, Q8NI35
[9] = target: T4, PARD3B_1, Q8TEW8
[10] = target: TJP1_3, Q07157
[11] = target: T5, HTRA3, P83110
[12] = target: DLG4_2, P78352
[13] = target: Inadl_10, Q8NI35
[14] = target: TJP2_1, Q9UDY2
[15] = target: T6, SYNJ2BP, P57105
[16] = target: NOS1, P29475
[17] = target: GORASP2, Q9H8Y8
[18] = target: T7, GRIP1_2, Q9Y3R0
[19] = target: T8, DLG3_2, Q92796
[20] = target: T9, DLG3_3, Q92796
[21] = target: T10, DFNB31_2, Q9P202
[22] = target: NHERF4_4, Q86UT5
[23] = target: T11, RHPN1, Q8TCX5
[24] = target: HTRA1, Q92743
[25] = target: T12, GRIP1_4, Q9Y3R0

Chain of TJP2_1, Q9UDY2 (Q9UDY2 24-128): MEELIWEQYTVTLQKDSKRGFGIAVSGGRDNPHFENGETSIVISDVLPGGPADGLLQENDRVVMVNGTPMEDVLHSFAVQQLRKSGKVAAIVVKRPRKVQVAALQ
Chain of NOS1, P29475 (P29475 9-101): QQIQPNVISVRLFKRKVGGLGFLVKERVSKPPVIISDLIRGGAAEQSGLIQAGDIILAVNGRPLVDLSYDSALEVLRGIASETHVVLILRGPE
Chain of Inadl_9, Q8NI35 (Q8NI35 1530-1615): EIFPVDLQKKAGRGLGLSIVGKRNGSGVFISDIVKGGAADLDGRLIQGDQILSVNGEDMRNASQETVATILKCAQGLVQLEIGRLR
Chain of LAP2, Q96RT1 (Q96RT1 other isoform, or with tags, fused parts or gaps): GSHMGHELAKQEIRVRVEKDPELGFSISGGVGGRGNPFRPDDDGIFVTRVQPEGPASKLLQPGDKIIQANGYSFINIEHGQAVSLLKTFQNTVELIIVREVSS
Chain of Inadl_5, Q8NI35 (Q8NI35 673-780): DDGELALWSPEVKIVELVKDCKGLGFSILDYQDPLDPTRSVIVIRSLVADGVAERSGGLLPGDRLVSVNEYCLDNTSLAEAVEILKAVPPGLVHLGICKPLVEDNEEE
Chain of Inadl_10, Q8NI35 (Q8NI35 1673-1763): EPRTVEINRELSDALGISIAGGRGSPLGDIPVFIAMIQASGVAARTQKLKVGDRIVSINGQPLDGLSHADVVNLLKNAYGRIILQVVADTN
Chain of HTRA1, Q92743 (Q92743 360-477): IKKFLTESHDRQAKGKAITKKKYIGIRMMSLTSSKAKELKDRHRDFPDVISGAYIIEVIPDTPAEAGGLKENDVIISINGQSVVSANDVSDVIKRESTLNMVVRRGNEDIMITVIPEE
Chain of DLG2_2, Q15700 (Q15700 189-283): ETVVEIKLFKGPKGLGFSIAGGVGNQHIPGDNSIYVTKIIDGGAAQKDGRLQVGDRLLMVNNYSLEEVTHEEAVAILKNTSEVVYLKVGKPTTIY
Chain of TJP1_3, Q07157 (Q07157 416-512): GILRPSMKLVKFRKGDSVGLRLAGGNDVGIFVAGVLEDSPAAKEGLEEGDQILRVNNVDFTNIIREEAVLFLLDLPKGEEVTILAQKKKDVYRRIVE
Chain of DLG4_2, P78352 (P78352 155-259): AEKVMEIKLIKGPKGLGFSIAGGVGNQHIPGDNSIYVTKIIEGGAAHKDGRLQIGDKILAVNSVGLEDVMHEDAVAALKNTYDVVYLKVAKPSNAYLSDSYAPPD
Chain of NHERF4_4, Q86UT5 (Q86UT5 464-550): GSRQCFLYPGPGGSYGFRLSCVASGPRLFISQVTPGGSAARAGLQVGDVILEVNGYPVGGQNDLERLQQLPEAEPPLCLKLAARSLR
Chain of IL16_1, Q14005 (Q14005 210-306): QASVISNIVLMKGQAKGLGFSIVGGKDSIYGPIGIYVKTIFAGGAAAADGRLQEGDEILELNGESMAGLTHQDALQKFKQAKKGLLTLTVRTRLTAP

Binder	pKd [1]	pKd [2]	pKd [3]	pKd [4]	pKd [5]	pKd [6]	pKd [7]	pKd [8]	pKd [9]	pKd [10]	pKd [11]	pKd [12]	pKd [13]	pKd [14]	pKd [15]	pKd [16]	pKd [17]	pKd [18]	pKd [19]	pKd [20]	other results
SAGADSETHC [SLCO1B1, Q9Y6L6]	3.69	below the threshold	below the threshold	below the threshold	below the threshold	below the threshold	below the threshold	below the threshold	below the threshold	below the threshold	below the threshold	below the threshold	below the threshold	below the threshold	below the threshold	below the threshold	below the threshold	below the threshold	below the threshold	below the threshold	pKd [21]: below the threshold; pKd [22]: below the threshold; pKd [23]: 3.49; pKd [24]: 3.51; pKd [25]: below the threshold
GVHSNDHSVV [LPAR1, Q92633]	3.64	below the threshold	4.02	below the threshold	3.74	below the threshold	below the threshold	below the threshold	below the threshold	below the threshold	below the threshold	4.01	below the threshold	below the threshold	3.7	below the threshold	3.61	below the threshold	4.42	below the threshold	pKd [21]: below the threshold; pKd [22]: below the threshold; pKd [23]: 3.78; pKd [24]: 4.3; pKd [25]: below the threshold
